Measured values: article PMC4366199, “Arfaptin-1 Negatively Regulates Arl1-Mediated Retrograde Transport” (PLoS ONE, 2015)
Blank lines part the entries; values can stand above or below the binder they belong to.

Molecular target: T1, GST-Arl1QL (Arf-like protein 1, Gln71 to Leu, putative active GTP-bound form) (human, UniProt P40616 1-181, Gln71 to Leu (Arl1QL))
T1 construct: Arf-like protein 1 (Arl1), human; fragment encoding Arl1QL subcloned into pGEX4T via EcoRI; Loaded with GTPγS on the resin; also called active form of Arl1; source: E. coli BL21, immobilized on glutathione-sepharose resin, exchanged for GTPγS
T1 sequence (looked up): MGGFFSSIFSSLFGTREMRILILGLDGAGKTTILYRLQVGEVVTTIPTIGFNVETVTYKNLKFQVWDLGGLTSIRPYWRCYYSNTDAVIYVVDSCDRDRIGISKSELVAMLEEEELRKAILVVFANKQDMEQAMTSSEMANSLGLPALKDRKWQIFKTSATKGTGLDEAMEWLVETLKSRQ
Test: pull-down; GST fusion proteins (5 μg) immobilized on glutathione-sepharose, incubated with GTPγS (QL) or GDP (TN); HeLa lysates (2.5 mg), endogenous proteins; 12.5% SDS-PAGE and western blotting
Conditions: one partner purified

- fold change of the level bound, against Arf1QL: 1.84 fold
B1: arfaptin-1a (Arf-interacting protein 1, short isoform), endogenous (natural protein, human (endogenous in HeLa), UniProt P53367-2 1-341, looked up)
chain: MAQESPKNSAAEIPVTSNGEVDDSREHSFNRDLKHSLPSGLGLSETQITSHGFDNTKEGVIEAGAFQGGQRTQTKSGPVILADEIKNPAMEKLELVRKWSLNTYKCTRQIISEKLGRGSRTVDLELEAQIDILRDNKKKYENILKLAQTLSTQLFQMVHTQRQLGDAFADLSLKSLELHEEFGYNADTQKLLAKNGETLLGAINFFIASVNTLVNKTIEDTLMTVKQYESARIEYDAYRTDLEELNLGPRDANTLPKIEQSQHLFQAHKEKYDKMRNDVSVKLKFLEENKVKVLHNQLVLFHNAIAAYFAGNQKQLEQTLKQFHIKLKTPGVDAPSWLEEQ
notes: arfaptin-1a, short isoform of arfaptin-1; lacks the insertion (residues 69-100) of arfaptin-1b; also called arfaptin-1a (short form); source: endogenous, HeLa lysate

- fold change of the level bound, against Arf1QL: 1.84 fold
B2: arfaptin-1b (Arf-interacting protein 1b, long isoform), endogenous (natural protein, human (endogenous in HeLa), UniProt P53367 1-373, looked up)
chain: MAQESPKNSAAEIPVTSNGEVDDSREHSFNRDLKHSLPSGLGLSETQITSHGFDNTKEGVIEAGAFQGSPAPPLPSVMSPSRVAASRLAQQGSDLIVPAGGQRTQTKSGPVILADEIKNPAMEKLELVRKWSLNTYKCTRQIISEKLGRGSRTVDLELEAQIDILRDNKKKYENILKLAQTLSTQLFQMVHTQRQLGDAFADLSLKSLELHEEFGYNADTQKLLAKNGETLLGAINFFIASVNTLVNKTIEDTLMTVKQYESARIEYDAYRTDLEELNLGPRDANTLPKIEQSQHLFQAHKEKYDKMRNDVSVKLKFLEENKVKVLHNQLVLFHNAIAAYFAGNQKQLEQTLKQFHIKLKTPGVDAPSWLEEQ
notes: arfaptin-1b, long isoform of arfaptin-1 with an insertion (residues 69-100) absent from arfaptin-1a; source: endogenous, HeLa lysate
